Laboratory results as given in the RNAGym collection of RNA variant scans (doi:10.7554/elife.80360).

B1: HDV Ribozyme (parent)
chain: GGCCGGCAUGGUCCCAGCCUCCUCGCUGGCGCCGGCUGGGCAACAUUCCGAGGGGACCGUCCCCUCGGUAAUGGCGAAUGGGACCCA

Variants of: B1
Assay: self-cleavage, relative activity (ratio to wild type); higher = more cleavage; co-transcriptional
For G2U A78U, the self-cleavage was 0. With G50C C61U the self-cleavage was 0.749. Variant C4U C26U has a self-cleavage of 0.764. With C14U G74A the self-cleavage was 0.604. Work on A8G C75U yielded a self-cleavage of 0.133. In the case of A42U C58A, the self-cleavage is reported as 0.481. Variant C19U C24U has a self-cleavage of 0.101. U27A G52A gave a self-cleavage of 0.844. Variant C64U A70G has a self-cleavage of 0.701. For C48A U72A, the self-cleavage was 0.456. Work on C3U C18U yielded a self-cleavage of 0.43. In the case of G68U A87U, the self-cleavage is reported as 1. For C30A G80C, the self-cleavage was 0.272. C13U C24A gave a self-cleavage of 0.381. In the case of A16G U37G, the self-cleavage is reported as 0.119. G11U U79A gave a self-cleavage of 0.148. With C64U G73C the self-cleavage was 0.601. Work on G80A C85G yielded a self-cleavage of 0.312. Variant G17U C21U has a self-cleavage of 0.13. With C26G G82C the self-cleavage was 0.499. C64G G81U showed a self-cleavage of 0.312. In the case of G11C C24A, the self-cleavage is reported as 0.0898. Work on C19G G82U yielded a self-cleavage of 0.0627. Work on G67A A70C yielded a self-cleavage of 0.475. In the case of U9C G76U, the self-cleavage is reported as 1.05. C4G G28A showed a self-cleavage of 0. For A45U A56U, the self-cleavage was 0.831. In the case of C32A G55A, the self-cleavage is reported as 0.145. For U23A U72A, the self-cleavage was 0.773. C33G A87G gave a self-cleavage of 0.116. G29U U72C gave a self-cleavage of 0.0811. Work on C22G G76C yielded a self-cleavage of 0.151. With A8C C86U the self-cleavage was 0.862. C32A C57U gave a self-cleavage of 0.318. Variant C49A G59C has a self-cleavage of 1.08. Variant G31C A45G has a self-cleavage of 0.293. With C15G C49G the self-cleavage was 0.499. In the case of U9G C64G, the self-cleavage is reported as 0.831. G10C A56C showed a self-cleavage of 0.978. C15A G67U gave a self-cleavage of 0.633. Variant C26G U79G has a self-cleavage of 0.8. Work on G73C U79G yielded a self-cleavage of 0.107. With U46G U69A the self-cleavage was 0.665. With U12A A78C the self-cleavage was 0.123. With C15U G28U the self-cleavage was 0.227. For U20G U79C, the self-cleavage was 0.0773. With U23C U72G the self-cleavage was 0.532. Work on A43U G82C yielded a self-cleavage of 0. In the case of G6U A71C, the self-cleavage is reported as 0.123. With G53C G73C the self-cleavage was 0.36. Work on C30U C32G yielded a self-cleavage of 0.0652. C4G U27A showed a self-cleavage of 0.222. For G55U C85A, the self-cleavage was 1.09. In the case of C3G G25C, the self-cleavage is reported as 0.0292. In the case of C75G G76U, the self-cleavage is reported as 0.237. C57G C58G gave a self-cleavage of 0.943. With C14U A77C the self-cleavage was 0.249. Variant G40A A45U has a self-cleavage of 0.563. With C18U G40U the self-cleavage was 0.314. Work on G52U C75A yielded a self-cleavage of 0.148. C7A U47G showed a self-cleavage of 0.317. G50A C64G showed a self-cleavage of 0.404. A42C C61G gave a self-cleavage of 0.269. In the case of C36G A51C, the self-cleavage is reported as 0.0665. With G17C U37G the self-cleavage was 0. Variant G17U U37G has a self-cleavage of 0.0831. With A43G G55A the self-cleavage was 0.566. Work on G52C A71C yielded a self-cleavage of 0.332. C41U A56U showed a self-cleavage of 1.09. For G50U C86U, the self-cleavage was 0.751. With A16C G29A the self-cleavage was 0.116. With G55A C85G the self-cleavage was 0.962. Variant C19U C41U has a self-cleavage of 0.173. With U46G C62U the self-cleavage was 0.811. For C21A A56C, the self-cleavage was 0.0898. Work on C24A G52A yielded a self-cleavage of 1.1. Work on C44G C58A yielded a self-cleavage of 1.07. G1U G59A showed a self-cleavage of 0.442. G11A U46A showed a self-cleavage of 0.148. With C44G C57G the self-cleavage was 0.458. G11A U79A showed a self-cleavage of 0.0652. In the case of C4G C63A, the self-cleavage is reported as 0.177. C30U G34C gave a self-cleavage of 0.0923. Variant G76C G81A has a self-cleavage of 0.499. With G10U G39C the self-cleavage was 0.138. In the case of A16C C62U, the self-cleavage is reported as 0.804. U72G C84A gave a self-cleavage of 0.6. Variant G38C G81A has a self-cleavage of 0. Variant G31U C44A has a self-cleavage of 0.0707. C15G U60C showed a self-cleavage of 0.7. For G6A G80U, the self-cleavage was 0.0813. G54U G67U gave a self-cleavage of 0.774. In the case of C4A A56C, the self-cleavage is reported as 0.287. For C26A G31U, the self-cleavage was 0.425. G67A U79A showed a self-cleavage of 0.982. Variant C21G G40A has a self-cleavage of 0.0346. For G38C U79A, the self-cleavage was 0.151. G2A C32A showed a self-cleavage of 0.0507. Work on G28C G80A yielded a self-cleavage of 0.193. In the case of C36U A51U, the self-cleavage is reported as 0.743. G40A U46A gave a self-cleavage of 0.437. Work on U65G A71C yielded a self-cleavage of 0.755. C3G G34U showed a self-cleavage of 0.323. In the case of G1A G31U, the self-cleavage is reported as 0. U9A G76C showed a self-cleavage of 1.07. With C7U C61A the self-cleavage was 0.87. A16C U20A showed a self-cleavage of 0. Work on G2U A56C yielded a self-cleavage of 0.0405. For A43U A71C, the self-cleavage was 0.543. G31A C33G gave a self-cleavage of 0. G34U G67A gave a self-cleavage of 0.115. Work on C21U G53C yielded a self-cleavage of 0.188. Work on G73U A77G yielded a self-cleavage of 0.306. G39A G74A gave a self-cleavage of 0.172. Work on C15A U47G yielded a self-cleavage of 0.35. U20G U69A gave a self-cleavage of 0. G34A G54C gave a self-cleavage of 0.151. Work on C14A A78C yielded a self-cleavage of 0.158. G25A C75A gave a self-cleavage of 0.166. G2A A71G gave a self-cleavage of 0.241. Variant C26A C32U has a self-cleavage of 0.816. With C30G C62A the self-cleavage was 0.122. In the case of U12G U60C, the self-cleavage is reported as 0.895. G10C C44A showed a self-cleavage of 0.615. C7U G29C gave a self-cleavage of 0.185. G5A G82U showed a self-cleavage of 0.0354. For C63A U72A, the self-cleavage was 0.542. Variant C48A G59U has a self-cleavage of 1.11. Variant U12G C64A has a self-cleavage of 0.594. G1A U37A showed a self-cleavage of 0.161. C19A G82U gave a self-cleavage of 0.0898. C32U C64U showed a self-cleavage of 0.831. For G1U C62A, the self-cleavage was 0.248. For C19G U37C, the self-cleavage was 0.0594. Work on C63A G67U yielded a self-cleavage of 0.451. For C41G U65G, the self-cleavage was 0.692. For G10U C14A, the self-cleavage was 0. For G38C A87U, the self-cleavage was 0.252. In the case of C13G G29U, the self-cleavage is reported as 0.0415. Variant C30U G40A has a self-cleavage of 0.645. For G2A U79C, the self-cleavage was 0.0804. G28A G38U showed a self-cleavage of 0.0496. With C26A U72A the self-cleavage was 0.692. In the case of U23C G52U, the self-cleavage is reported as 1.11. Work on C22G G55A yielded a self-cleavage of 0.0723. For C49U U72G, the self-cleavage was 0.745. For A56U G76A, the self-cleavage was 0.939. With C7G G81C the self-cleavage was 0. Work on U65C A70U yielded a self-cleavage of 0.789. With C22G C61G the self-cleavage was 0.104. G25U A51C showed a self-cleavage of 0.135. C24A G59U showed a self-cleavage of 0.783. With G25A G73U the self-cleavage was 0.0702. In the case of G2C C36U, the self-cleavage is reported as 0.0799. With G39U A83C the self-cleavage was 0.157. Variant C7A C24A has a self-cleavage of 0.125. Variant G39U A56C has a self-cleavage of 0.701. In the case of C19U G68A, the self-cleavage is reported as 0.148. Variant C3U C15U has a self-cleavage of 0.562. Variant G25C C48A has a self-cleavage of 0.0415. Work on G40U C84G yielded a self-cleavage of 0.354. Variant C22G U69G has a self-cleavage of 0.108. Variant U23A C85G has a self-cleavage of 0.942. U12G A87C showed a self-cleavage of 0.749. Work on C4G A70G yielded a self-cleavage of 0.59. U37G G73A gave a self-cleavage of 0. In the case of U47G C66U, the self-cleavage is reported as 1.23.
